From paper PMC6443961, “Von Willebrand Factor Mediates Pneumococcal Aggregation and Adhesion in Blood Flow” (Frontiers in Microbiology, 2019)
Several values for one entry are separate records, joined by “and”; a condition that tells them apart may be missing. Equal entries are not always repeated.

Key:
[1] = molecular target: recombinant enolase of S. pneumoniae serotype 2 (ATCC 11733) (Streptococcus pneumoniae serotype 2 (ATCC 11733)) (UniProt Q97QS2); assay: SPR; rEno immobilised by amine coupling on CM5 chip (BIAcore T200), VWF or A domains as analyte, PBS pH 7.4 with 0.05% Tween 20, 25°C, 10 μl/min, 1:1 Langmuir model
[2] = molecular target: recombinant enolase protein (rEno) of S. pneumoniae serotype 2 (ATCC 11733) (Streptococcus pneumoniae serotype 2 (ATCC 11733)) (UniProt Q04KG2); assay: SPR; rEno immobilised by amine coupling on CM5 chips (BIAcore T200); PBS pH 7.4 with 0.05% Tween 20, 25°C, 10 µl/min; analytes plasma VWF 0.625-10.0 µg/ml or VWF A1 domain 0.0612-1.0 µg/ml; 1:1 Langmuir model; values of the single independent kinetic runs
[3] = molecular target: T1, human plasma von Willebrand factor (human, UniProt P04275 764-2813); assay: peptide or protein array; 141 overlapping 15mer peptides of enolase (offset three) on cellulose membrane, overlay with 2.0 μg/ml VWF, detected with anti-VWF antibody; conditions: both partners purified
T1 construct: von Willebrand factor, human, derived from plasma; called 'full length VWF' in the SPR methods, as against the single A domains; Glycoprotein from plasma that circulates as multimers; also called VWF; plasma VWF; source: bought: Merck Chemicals (human plasma VWF)

Chain of recombinant enolase protein (rEno) of S. pneumoniae serotype 2 (ATCC 11733) (Streptococcus pneumoniae serotype 2 (ATCC 11733)) (Q04KG2 whole entry, the tested form may be a part): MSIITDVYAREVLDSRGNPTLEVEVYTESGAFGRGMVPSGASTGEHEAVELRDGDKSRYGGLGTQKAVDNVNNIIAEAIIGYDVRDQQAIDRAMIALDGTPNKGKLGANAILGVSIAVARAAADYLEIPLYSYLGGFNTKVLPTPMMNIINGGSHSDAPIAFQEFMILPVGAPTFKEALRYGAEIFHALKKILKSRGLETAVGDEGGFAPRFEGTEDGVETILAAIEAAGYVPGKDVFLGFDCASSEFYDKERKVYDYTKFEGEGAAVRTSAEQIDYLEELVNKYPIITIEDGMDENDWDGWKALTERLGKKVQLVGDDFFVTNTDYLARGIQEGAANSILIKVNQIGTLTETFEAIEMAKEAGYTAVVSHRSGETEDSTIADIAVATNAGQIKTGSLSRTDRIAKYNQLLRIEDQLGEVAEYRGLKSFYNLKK
Chain of recombinant enolase of S. pneumoniae serotype 2 (ATCC 11733) (Streptococcus pneumoniae serotype 2 (ATCC 11733)) (Q97QS2 whole entry, the tested form may be a part): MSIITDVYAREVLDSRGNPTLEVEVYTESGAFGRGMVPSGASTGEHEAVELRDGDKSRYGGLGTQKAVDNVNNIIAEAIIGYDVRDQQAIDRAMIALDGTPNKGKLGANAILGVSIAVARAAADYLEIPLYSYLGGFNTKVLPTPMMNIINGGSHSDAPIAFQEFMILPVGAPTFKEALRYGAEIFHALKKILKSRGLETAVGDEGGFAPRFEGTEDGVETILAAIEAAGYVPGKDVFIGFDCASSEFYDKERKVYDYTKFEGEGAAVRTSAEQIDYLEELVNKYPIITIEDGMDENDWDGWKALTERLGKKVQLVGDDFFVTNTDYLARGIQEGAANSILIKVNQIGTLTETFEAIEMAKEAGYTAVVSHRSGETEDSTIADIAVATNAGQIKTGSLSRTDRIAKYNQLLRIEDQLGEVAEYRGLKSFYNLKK

recombinant VWF domain A1 (domain or fragment)
Kd [1]: 0.208 nM

recombinant VWF domain A1 (from UniProt P04275 23-2813) (domain or fragment)
Kd [2]: 2.18 nM and 1.79 nM and 0.585 nM | koff [2]: 0.00126 s⁻¹ and 0.00175 s⁻¹ and 0.0013 s⁻¹

B1: enolase peptide 181YGAEIFHALKKILKS195 (peptide)
peptide: YGAEIFHALKKILKS
notes: residues 181-195 of the enolase of S. pneumoniae; one 15mer of the peptide spot array; Synthesised as a spot and held on the cellulose membrane; also called core peptide of region no; source: synthetic peptide, spot on an amino pegylated cellulose membrane
binding result [3]: binds
